Assay results: patent US20240026331

Molecular target: gliadin substrate

| Protein | gliadin digestion in buffered SGF (pH 3, 0.8 mg/mL pepsin), RIDASCREEN Gliadin competitive ELISA, 0-60 min | proteolytic activity on gliadin substrate (percent of gliadin remaining, RIDASCREEN Gliadin competitive ELISA; pH 4, 37 C, 5 or 30 min) | proteolytic activity on gliadin substrate inside a mouse stomach (enzyme-to-substrate ratio 1:1000 or 1:10,000, 15 min; RIDASCREEN Gliadin competitive ELISA) | gliadin digestion in buffered SGF (pH 3, 0.8 mg/mL pepsin), RIDASCREEN Gliadin competitive ELISA |
| --- | --- | --- | --- | --- |
| activated (mature, proteolytically active) neprosin Npr1 prepared by acid treatment (100 mM glycine, pH 2.5) of Npr1 purified from cells expressing … (protein) SANTNHQYAVIAYFYGNASLQGANATINIWEPNLKNPNGDFSLTQIWISAGSGSSLNTIEAGWQVYPGRTGDSQPRFFIYWTADGYTSTGCYDLTCPGFVQTNNYYAIGMALQPSVYGGQQYELNESIQRDPATGNWWLYLWGTVVGYWPASIYNSITNGADTVEWGGEIYDSSGTGGFHTTTQMGSGHFPTEGYGKASYVRDLQCVDTYGNVISPTANSFQGIAPAPNCYNYQFQQGSSELYLFYGGPGCQ | shows equivalent gliadin digestion activity when compared to the enzyme prepared from mammalian CHO cells | Neprosin preparation activated by treatment at acidic pH displays significantly greater proteolytic activity compared to unactivated neprosin polypeptide prepared from cells expressing mSP-His-Npr1 | dose-dependent proteolytic activity of activated WT Npr1 prepared from Npr1 expressed in CHO cells on gliadin substrate inside a mouse stomach | – |
| activated N216A Npr1 prepared from pJAG-s1-His-N216A Npr1 expressed in Pichia cells (SEQ ID NO: 60) (protein) SANTNHQYAVIAYFYGAASLQGANATINIWEPNLKNPNGDFSLTQIWISAGSGSSLNTIEAGWQVYPGRTGDSQPRFFIYWTADGYTSTGCYDLTCPGFVQTNNYYAIGMALQPSVYGGQQYELNESIQRDPATGNWWLYLWGTVVGYWPASIYNSITNGADTVEWGGEIYDSSGTGGFHTTTQMGSGHFPTEGYGKASYVRDLQCVDTYGNVISPTANSFQGIAPAPNCYNYQFQQGSSELYLFYGGPGCQ | – | – | – | Both N216A Npr1 and N216A/N324A Npr1 digested gliadin in a similar manner as WT Npr1 produced in Pichia |
| activated WT Npr1 prepared from Npr1 expressed in Pichia cells (pJAG-s1-His-Npr1) (protein) SANTNHQYAVIAYFYGNASLQGANATINIWEPNLKNPNGDFSLTQIWISAGSGSSLNTIEAGWQVYPGRTGDSQPRFFIYWTADGYTSTGCYDLTCPGFVQTNNYYAIGMALQPSVYGGQQYELNESIQRDPATGNWWLYLWGTVVGYWPASIYNSITNGADTVEWGGEIYDSSGTGGFHTTTQMGSGHFPTEGYGKASYVRDLQCVDTYGNVISPTANSFQGIAPAPNCYNYQFQQGSSELYLFYGGPGCQ | The activated neprosin protease from Pichia is proteolytically active on gliadin substrate in SGF and shows equivalent gliadin digestion activity when compared to the enzyme prepared from mammalian CHO cells | – | – | – |
| activated N216A/N324A Npr1 prepared from pJAG-s1-His-N216A, N324A Npr1 expressed in Pichia cells (SEQ ID NO: 66) (protein) SANTNHQYAVIAYFYGAASLQGANATINIWEPNLKNPNGDFSLTQIWISAGSGSSLNTIEAGWQVYPGRTGDSQPRFFIYWTADGYTSTGCYDLTCPGFVQTNNYYAIGMALQPSVYGGQQYELAESIQRDPATGNWWLYLWGTVVGYWPASIYNSITNGADTVEWGGEIYDSSGTGGFHTTTQMGSGHFPTEGYGKASYVRDLQCVDTYGNVISPTANSFQGIAPAPNCYNYQFQQGSSELYLFYGGPGCQ | – | – | – | Both N216A Npr1 and N216A/N324A Npr1 digested gliadin in a similar manner as WT Npr1 produced in Pichia |
| unactivated neprosin polypeptide prepared from cells expressing mSP-His-Npr1 (SEQ ID NO: 40) (protein) HHHHHHRSIQARLANKPKGTIKTIKGDDGEVVDCVDIYKQPAFDHPLLKNHTLQMQPSSYASKVGEYNKLEQPWHKNGECPKGSIPIRRQVITGLPVVKKQFPNLKFAPPSANTNHQYAVIAYFYGNASLQGANATINIWEPNLKNPNGDFSLTQIWISAGSGSSLNTIEAGWQVYPGRTGDSQPRFFIYWTADGYTSTGCYDLTCPGFVQTNNYYAIGMALQPSVYGGQQYELNESIQRDPATGNWWLYLWGTVVGYWPASIYNSITNGADTVEWGGEIYDSSGTGGFHTTTQMGSGHFPTEGYGKASYVRDLQCVDTYGNVISPTANSFQGIAPAPNCYNYQFQQGSSELYLFYGGPGCQ | – | Neprosin preparation activated by treatment at acidic pH displays significantly greater proteolytic activity compared to unactivated neprosin polypeptide prepared from cells expressing mSP-His-Npr1 | – | – |
